Tests used:
Conditions in all cases: Homo sapiens
[1] = compound: COc1ccc(Cc2ccccc2)cc1; test: (§1) Activation of N-terminal (His)6 and Xpress-tagged LTA4H (unknown origin) expressed in Escherichia coli BL21(DE3) cells assessed as increase in aminopeptidase activity by measuring Km for p-nitroanilide release at 0.1 uM using L-Alanine-p-nitroanilide incubated for 10 mins by UV plate reader based assay
[2] = compound: Nc1nc(-c2ccc(Cc3ccccc3)cc2)cs1; test: as §1
[3] = compound: Nc1nc(-c2ccc(Cc3ccc(C(F)(F)F)cc3)cc2)cs1; test: as §1
[4] = compound: COc1ccc(Cc2ccc(-c3csc(N)n3)cc2)cc1; test: as §1
[5] = compound: Cc1ccc(Cc2ccc(-c3csc(N)n3)cc2)cc1; test: as §1
[6] = compound: COc1ccc(Cc2ccccc2)cc1; test: as §1, with “Kcat/Km ratio” for “Km”, “5” for “0.1”
[7] = compound: Nc1nc(-c2ccc(Cc3ccccc3)cc2)cs1; test: as above
[8] = compound: Nc1nc(-c2ccc(Cc3ccc(C(F)(F)F)cc3)cc2)cs1; test: as above
[9] = compound: COc1ccc(Cc2ccc(-c3csc(N)n3)cc2)cc1; test: as above
[10] = compound: Cc1ccc(Cc2ccc(-c3csc(N)n3)cc2)cc1; test: as above
[11] = compound: COc1ccc(Cc2ccccc2)cc1; test: as §1, with “Kcat” for “Km”, “10” for “0.1”
[12] = compound: Nc1nc(-c2ccc(Cc3ccccc3)cc2)cs1; test: as §1, with “Kcat” for “Km”, “10” for “0.1”
[13] = compound: Nc1nc(-c2ccc(Cc3ccc(C(F)(F)F)cc3)cc2)cs1; test: as §1, with “Kcat” for “Km”, “10” for “0.1”
[14] = compound: COc1ccc(Cc2ccc(-c3csc(N)n3)cc2)cc1; test: as §1, with “Kcat” for “Km”, “10” for “0.1”
[15] = compound: Cc1ccc(Cc2ccc(-c3csc(N)n3)cc2)cc1; test: as §1, with “Kcat” for “Km”, “10” for “0.1”
[16] = compound: COc1ccc(Cc2ccccc2)cc1; test: as §1, with “Kcat/Km ratio” for “Km”, “0.5” for “0.1”
[17] = compound: Nc1nc(-c2ccc(Cc3ccccc3)cc2)cs1; test: as above
[18] = compound: Nc1nc(-c2ccc(Cc3ccc(C(F)(F)F)cc3)cc2)cs1; test: as above
[19] = compound: COc1ccc(Cc2ccc(-c3csc(N)n3)cc2)cc1; test: as above
[20] = compound: Cc1ccc(Cc2ccc(-c3csc(N)n3)cc2)cc1; test: as above
[21] = compound: COc1ccc(Cc2ccccc2)cc1; test: as §1, with “5” for “0.1”
[22] = compound: Nc1nc(-c2ccc(Cc3ccccc3)cc2)cs1; test: as §1, with “5” for “0.1”
[23] = compound: Nc1nc(-c2ccc(Cc3ccc(C(F)(F)F)cc3)cc2)cs1; test: as §1, with “5” for “0.1”
[24] = compound: COc1ccc(Cc2ccc(-c3csc(N)n3)cc2)cc1; test: as §1, with “5” for “0.1”
[25] = compound: Cc1ccc(Cc2ccc(-c3csc(N)n3)cc2)cc1; test: as §1, with “5” for “0.1”
[26] = compound: COc1ccc(Cc2ccccc2)cc1; test: as §1, with “Kcat/Km ratio” for “Km”, “10” for “0.1”
[27] = compound: Nc1nc(-c2ccc(Cc3ccccc3)cc2)cs1; test: as above
[28] = compound: Nc1nc(-c2ccc(Cc3ccc(C(F)(F)F)cc3)cc2)cs1; test: as above
[29] = compound: COc1ccc(Cc2ccc(-c3csc(N)n3)cc2)cc1; test: as above
[30] = compound: Cc1ccc(Cc2ccc(-c3csc(N)n3)cc2)cc1; test: as above
[31] = compound: COc1ccc(Cc2ccccc2)cc1; test: as §1, with “Kcat” for “Km”, “5” for “0.1”
[32] = compound: Nc1nc(-c2ccc(Cc3ccccc3)cc2)cs1; test: as §1, with “Kcat” for “Km”, “5” for “0.1”
[33] = compound: Nc1nc(-c2ccc(Cc3ccc(C(F)(F)F)cc3)cc2)cs1; test: as §1, with “Kcat” for “Km”, “5” for “0.1”
[34] = compound: COc1ccc(Cc2ccc(-c3csc(N)n3)cc2)cc1; test: as §1, with “Kcat” for “Km”, “5” for “0.1”
[35] = compound: Cc1ccc(Cc2ccc(-c3csc(N)n3)cc2)cc1; test: as §1, with “Kcat” for “Km”, “5” for “0.1”
[36] = compound: COc1ccc(Cc2ccccc2)cc1; test: as §1, with “10” for “0.1”
[37] = compound: Nc1nc(-c2ccc(Cc3ccccc3)cc2)cs1; test: as §1, with “10” for “0.1”
[38] = compound: Nc1nc(-c2ccc(Cc3ccc(C(F)(F)F)cc3)cc2)cs1; test: as §1, with “10” for “0.1”
[39] = compound: COc1ccc(Cc2ccc(-c3csc(N)n3)cc2)cc1; test: as §1, with “10” for “0.1”
[40] = compound: Cc1ccc(Cc2ccc(-c3csc(N)n3)cc2)cc1; test: as §1, with “10” for “0.1”
[41] = compound: COc1ccc(Cc2ccccc2)cc1; test: as §1, with “Kcat” for “Km”, “1” for “0.1”
[42] = compound: Nc1nc(-c2ccc(Cc3ccccc3)cc2)cs1; test: as §1, with “Kcat” for “Km”, “1” for “0.1”
[43] = compound: Nc1nc(-c2ccc(Cc3ccc(C(F)(F)F)cc3)cc2)cs1; test: as §1, with “Kcat” for “Km”, “1” for “0.1”
[44] = compound: COc1ccc(Cc2ccc(-c3csc(N)n3)cc2)cc1; test: as §1, with “Kcat” for “Km”, “1” for “0.1”
[45] = compound: Cc1ccc(Cc2ccc(-c3csc(N)n3)cc2)cc1; test: as §1, with “Kcat” for “Km”, “1” for “0.1”
[46] = compound: COc1ccc(Cc2ccccc2)cc1; test: as §1, with “Kcat” for “Km”
[47] = compound: Nc1nc(-c2ccc(Cc3ccccc3)cc2)cs1; test: as §1, with “Kcat” for “Km”
[48] = compound: Nc1nc(-c2ccc(Cc3ccc(C(F)(F)F)cc3)cc2)cs1; test: as §1, with “Kcat” for “Km”
[49] = compound: COc1ccc(Cc2ccc(-c3csc(N)n3)cc2)cc1; test: as §1, with “Kcat” for “Km”
[50] = compound: Cc1ccc(Cc2ccc(-c3csc(N)n3)cc2)cc1; test: as §1, with “Kcat” for “Km”
[51] = compound: COc1ccc(Cc2ccccc2)cc1; test: as §1, with “1” for “0.1”
[52] = compound: Nc1nc(-c2ccc(Cc3ccccc3)cc2)cs1; test: as §1, with “1” for “0.1”
[53] = compound: Nc1nc(-c2ccc(Cc3ccc(C(F)(F)F)cc3)cc2)cs1; test: as §1, with “1” for “0.1”
[54] = compound: COc1ccc(Cc2ccc(-c3csc(N)n3)cc2)cc1; test: as §1, with “1” for “0.1”
[55] = compound: Cc1ccc(Cc2ccc(-c3csc(N)n3)cc2)cc1; test: as §1, with “1” for “0.1”
[56] = compound: COc1ccc(Cc2ccccc2)cc1; test: as §1, with “Kcat/Km ratio” for “Km”
[57] = compound: Nc1nc(-c2ccc(Cc3ccccc3)cc2)cs1; test: as §1, with “Kcat/Km ratio” for “Km”
[58] = compound: Nc1nc(-c2ccc(Cc3ccc(C(F)(F)F)cc3)cc2)cs1; test: as §1, with “Kcat/Km ratio” for “Km”
[59] = compound: COc1ccc(Cc2ccc(-c3csc(N)n3)cc2)cc1; test: as §1, with “Kcat/Km ratio” for “Km”
[60] = compound: Cc1ccc(Cc2ccc(-c3csc(N)n3)cc2)cc1; test: as §1, with “Kcat/Km ratio” for “Km”
[61] = compound: COc1ccc(Cc2ccccc2)cc1; test: as §1, with “0.5” for “0.1”
[62] = compound: Nc1nc(-c2ccc(Cc3ccccc3)cc2)cs1; test: as §1, with “0.5” for “0.1”
[63] = compound: Nc1nc(-c2ccc(Cc3ccc(C(F)(F)F)cc3)cc2)cs1; test: as §1, with “0.5” for “0.1”
[64] = compound: COc1ccc(Cc2ccc(-c3csc(N)n3)cc2)cc1; test: as §1, with “0.5” for “0.1”
[65] = compound: Cc1ccc(Cc2ccc(-c3csc(N)n3)cc2)cc1; test: as §1, with “0.5” for “0.1”
[66] = compound: COc1ccc(Cc2ccccc2)cc1; test: as §1, with “Kcat/Km ratio” for “Km”, “1” for “0.1”
[67] = compound: Nc1nc(-c2ccc(Cc3ccccc3)cc2)cs1; test: as above
[68] = compound: Nc1nc(-c2ccc(Cc3ccc(C(F)(F)F)cc3)cc2)cs1; test: as above
[69] = compound: COc1ccc(Cc2ccc(-c3csc(N)n3)cc2)cc1; test: as above
[70] = compound: Cc1ccc(Cc2ccc(-c3csc(N)n3)cc2)cc1; test: as above
[71] = compound: COc1ccc(Cc2ccccc2)cc1; test: as §1, with “Kcat” for “Km”, “0.5” for “0.1”
[72] = compound: Nc1nc(-c2ccc(Cc3ccccc3)cc2)cs1; test: as §1, with “Kcat” for “Km”, “0.5” for “0.1”
[73] = compound: Nc1nc(-c2ccc(Cc3ccc(C(F)(F)F)cc3)cc2)cs1; test: as §1, with “Kcat” for “Km”, “0.5” for “0.1”
[74] = compound: COc1ccc(Cc2ccc(-c3csc(N)n3)cc2)cc1; test: as §1, with “Kcat” for “Km”, “0.5” for “0.1”
[75] = compound: Cc1ccc(Cc2ccc(-c3csc(N)n3)cc2)cc1; test: as §1, with “Kcat” for “Km”, “0.5” for “0.1”

B1: Leukotriene A-4 hydrolase (Homo sapiens), P09960 (protein)
chain: MPEIVDTCSLASPASVCRTKHLHLRCSVDFTRRTLTGTAALTVQSQEDNLRSLVLDTKDLTIEKVVINGQEVKYALGERQSYKGSPMEISLPIALSKNQEIVIEISFETSPKSSALQWLTPEQTSGKEHPYLFSQCQAIHCRAILPCQDTPSVKLTYTAEVSVPKELVALMSAIRDGETPDPEDPSRKIYKFIQKVPIPCYLIALVVGALESRQIGPRTLVWSEKEQVEKSAYEFSETESMLKIAEDLGGPYVWGQYDLLVLPPSFPYGGMENPCLTFVTPTLLAGDKSLSNVIAHEISHSWTGNLVTNKTWDHFWLNEGHTVYLERHICGRLFGEKFRHFNALGGWGELQNSVKTFGETHPFTKLVVDLTDIDPDVAYSSVPYEKGFALLFYLEQLLGGPEIFLGFLKAYVEKFSYKSITTDDWKDFLYSYFKDKVDVLNQVDWNAWLYSPGLPPIKPNYDMTLTNACIALSQRWITAKEDDLNSFNATDLKDLSSHQLNEFLAQTLQRAPLPLGHIKRMQEVYNFNAINNSEIRFRWLRLCIQSKWEDAIPLALKMATEQGRMKFTRPLFKDLAAFDKSHDQAVRTYQEHKASMHPVTAMLVGKDLKVD
[1]
  Km: 0.98 mM
[2]
  Km: 2.17 mM
[3]
  Km: 2.27 mM
[4]
  Km: 2.05 mM
[5]
  Km: 3.3 mM
[6]
  kcat/Km: 15700 M⁻¹ s⁻¹
[7]
  kcat/Km: 8940 M⁻¹ s⁻¹
[8]
  kcat/Km: 2030 M⁻¹ s⁻¹
[9]
  kcat/Km: 6680 M⁻¹ s⁻¹
[10]
  kcat/Km: 11700 M⁻¹ s⁻¹
[11]
  kcat: 30.3 s⁻¹
[12]
  kcat: 39.6 s⁻¹
[13]
  kcat: 23.2 s⁻¹
[14]
  kcat: 44.1 s⁻¹
[15]
  kcat: 35.6 s⁻¹
[16]
  kcat/Km: 6060 M⁻¹ s⁻¹
[17]
  kcat/Km: 7070 M⁻¹ s⁻¹
[18]
  kcat/Km: 1210 M⁻¹ s⁻¹
[19]
  kcat/Km: 6180 M⁻¹ s⁻¹
[20]
  kcat/Km: 10100 M⁻¹ s⁻¹
[21]
  Km: 1.52 mM
[22]
  Km: 4.72 mM
[23]
  Km: 10.3 mM
[24]
  Km: 6.77 mM
[25]
  Km: 2.92 mM
[26]
  kcat/Km: 17300 M⁻¹ s⁻¹
[27]
  kcat/Km: 9810 M⁻¹ s⁻¹
[28]
  kcat/Km: 2300 M⁻¹ s⁻¹
[29]
  kcat/Km: 6680 M⁻¹ s⁻¹
[30]
  kcat/Km: 11400 M⁻¹ s⁻¹
[31]
  kcat: 23.9 s⁻¹
[32]
  kcat: 42.2 s⁻¹
[33]
  kcat: 20.9 s⁻¹
[34]
  kcat: 45.2 s⁻¹
[35]
  kcat: 34.3 s⁻¹
[36]
  Km: 1.75 mM
[37]
  Km: 4.03 mM
[38]
  Km: 10.1 mM
[39]
  Km: 6.6 mM
[40]
  Km: 3.12 mM
[41]
  kcat: 8.68 s⁻¹
[42]
  kcat: 31.9 s⁻¹
[43]
  kcat: 8.23 s⁻¹
[44]
  kcat: 32 s⁻¹
[45]
  kcat: 32.5 s⁻¹
[46]
  kcat: 3.01 s⁻¹
[47]
  kcat: 9.63 s⁻¹
[48]
  kcat: 1.91 s⁻¹
[49]
  kcat: 9.98 s⁻¹
[50]
  kcat: 21.1 s⁻¹
[51]
  Km: 1.03 mM
[52]
  Km: 4.04 mM
[53]
  Km: 5.94 mM
[54]
  Km: 4.75 mM
[55]
  Km: 2.87 mM
[56]
  kcat/Km: 3070 M⁻¹ s⁻¹
[57]
  kcat/Km: 4440 M⁻¹ s⁻¹
[58]
  kcat/Km: 840 M⁻¹ s⁻¹
[59]
  kcat/Km: 4870 M⁻¹ s⁻¹
[60]
  kcat/Km: 6380 M⁻¹ s⁻¹
[61]
  Km: 0.91 mM
[62]
  Km: 2.99 mM
[63]
  Km: 4.21 mM
[64]
  Km: 4.18 mM
[65]
  Km: 3.11 mM
[66]
  kcat/Km: 8460 M⁻¹ s⁻¹
[67]
  kcat/Km: 7890 M⁻¹ s⁻¹
[68]
  kcat/Km: 1390 M⁻¹ s⁻¹
[69]
  kcat/Km: 6740 M⁻¹ s⁻¹
[70]
  kcat/Km: 11300 M⁻¹ s⁻¹
[71]
  kcat: 5.54 s⁻¹
[72]
  kcat: 21.1 s⁻¹
[73]
  kcat: 5.09 s⁻¹
[74]
  kcat: 25.9 s⁻¹
[75]
  kcat: 31.3 s⁻¹
